Experimental findings from publication PMC10470591 are described below.

Assay [1] concerns the target Flag-tagged SisArnE (vWA domain protein SisvWA2) expressed in S. islandicus (Saccharolobus islandicus REY15A). Description: co-IP; in vivo pull-down: Flag-ArnB or Flag-ArnE precipitated with anti-Flag magnetic beads from sonicated S. islandicus cell extract in buffer A (50 mM Tris-HCl pH 7.5, 150 mM NaCl, 5% glycerol); SisArnA detected by Western blot with anti-SisArnA; cells untreated or treated with 3 µM NQO for 6 h.

Assay [2] addresses Flag-tagged SisArnB (vWA domain protein) expressed in S. islandicus (Saccharolobus islandicus REY15A). The assay is described as above.

In assay [1], “SisArnA, FHA domain-containing protein from Saccharolobus islandicus REY15A (endogenous) (natural protein)” returned an amount of SisArnA pulled down after NQO treatment, fold of the untreated sample of 3 fold. For the same substance, in assay [2], the amount of SisArnA pulled down after NQO treatment, percent of the untreated sample was 40% and the fold of the SisArnA-ArnE interaction, normal growth conditions turned out to be 9 fold.
